Source: publication PMC9452904
Blank lines part the entries; values can stand above or below the substance they belong to.

Assays:
vacant ribosome = test: fluorescence correlation spectroscopy (FCS); 100 nM Alexa488-labeled TF with increasing ribosome concentrations in HKM buffer (25 mM Hepes-KOH pH 7.4, 100 mM KCl, 5 mM MgCl2); ratio of ribosome-bound TF from a two-component fit, Kd from a quadratic fit
[1] = target: ribosome-nascent chain complex with the HA-tagged GatY(1-284) nascent chain (E. coli) (UniProt P0C8J6); test: fluorescence correlation spectroscopy (FCS); endpoint: ~2 ug truncated mRNA and 100 nM labeled TF in PUREfrex solution, 5-15 min at 37 C, then measured; two-component fit with the fast component fixed to free TF
[2] = target: ribosome-nascent chain complex with the HA-tagged GatY(1-153) nascent chain (E. coli) (UniProt P0C8J6); test: as above
[3] = target: ribosome-nascent chain complex with the HA-tagged GatY(1-153) nascent chain on the TMR-labeled Halo-S2 ribosome (E. coli | not stated) (UniProt P0C8J6); test: single-molecule total internal reflection fluorescence microscopy (TIRFM); RNCs held on a PEG/biotin-PEG slide through neutravidin and anti-HA biotin; 50 nM Alexa647-labeled TF, 50 nM TMR-labeled Halo-S2 ribosome; 10 frames/s for 150 s; residence times fitted
[4] = target: ribosome-nascent chain complex with the HA-tagged GatY(1-284) nascent chain on the TMR-labeled Halo-S2 ribosome (E. coli | not stated) (UniProt P0C8J6); test: as above
[5] = target: Trigger factor (Escherichia coli) (UniProt P0A850); settings: cited from earlier work

- Kd (vacant ribosome): 2240 nM
- percent of TF in the slow component [1]: 90%
- percent of TF in the slow component [2]: 90%
Substance: Alexa488-labeled trigger factor TF-R14C (from UniProt P0A850 1-432) (natural protein)

- half-life of the residence time (fast component) [3]: 2.7 s
- half-life of the residence time (slow fraction) [4]: 9.8 s
Substance: Alexa647-labeled TF-R14C (from UniProt P0A850 1-432) (natural protein)

Substance: Trigger factor (from UniProt P0A850)
- Kd [5]: 1500 nM
